The text below walks through data of article PMC2755895 (The Journal of Biological Chemistry, 2009).

No end group written: not given here.

One assay deals with subdomains of p300. The settings on record: cited from earlier work.
Assay [1] has as its system N-terminal domain of MDM2. The settings on record: cited from earlier work.
The target of assay [2] is hDp53N-(10–57)-aspartic acid mimic (UniProt P04637). The assay is described as follows: fluorescence polarisation. In general terms: Polarisation of emitted light reports the rotation of a fluorescent probe.
Assay [3] deals with QS2 W53Q/F54S p53N-(35–57) (UniProt P04637). Description: fluorescence polarisation.
Assay [4] addresses mutation of single hydrophobic residues to alanine (p53N peptides).
The target of a further assay is PC4CTD (Homo sapiens, UniProt P53999). Description: Fluorescence titration of p53TAD peptides. The assay is classed as binding. Conditions: in words.

With “TAD1: p53 transactivation subdomain TAD1-(1–40)”, the “binding to p300 subdomains” value in the assay with subdomains of p300 was “bind only weakly”. The “interaction with N-terminal domain of MDM2” value in assay [1] was “very tight”. With “p53 N-terminal transactivation domain, TAD-(1–93) (from UniProt P04637 1-93) (domain or fragment)”, the equilibrium dissociation constant (Kd) – broadly, the equilibrium constant for the complex coming apart – in the assay with p53 DNA-binding domain is more than 100 µM. As for “PC4 C-terminal DNA-binding domain, PC4CTD-(61–127) (from UniProt P53999 61-127) (domain or fragment)”, the Kd in assay [2] is 5 µM; in assay [3], 20 µM; in assay [4] it was 14 to 16 µM. Turning to “D41K/D42K/D48K/D49K/E51K p53N-(35–57) (LPSQAMKKLMLSPKKIKQWFTED-{K(methoxycoumarin)})”, the “quantifiability of binding to PC4CTD” value with PC4CTD is reported as “no quantifiable binding”.
